Test results as given in publication PMC4367279, “Comparisons with Amyloid-β Reveal an Aspartate Residue That Stabilizes Fibrils of the Aortic Amyloid Peptide Medin*” (The Journal of Biological Chemistry, 2015).

Target: medin D25N, recombinant (human)
Assay: thioflavin T fluorescence (aggregation kinetics); 20 uM medin, 20 uM ThT, 30 C, no agitation, 96-well plate, triplicate; 20 mM sodium phosphate, 150 mM NaCl, pH 7.4; sigmoidal fit, slope 1/tau is the rate of polymerization; self-assembly into ThT-responsive aggregates

- rate of polymerization (ThT fit): 1.43 h⁻¹
Substance: medin D25N, recombinant (peptide)
